Results on four substances are retold here after article PMC3097154, “Antiviral activity of α-helical stapled peptides designed from the HIV-1 capsid dimerization domain” (Retrovirology, 2011).

The target of assay [1] is C-terminal domain (CTD) of HIV-1 capsid (CA), wild type (HIV-1 (strain NL4-3)). Description: ITC; dilution of CTD (ca. 250 uM) into buffer with 50 uM NYAD-203; 25 mM sodium phosphate pH 7.3, 30 C; apparent; dimer to monomers. For orientation: In ITC the heat of successive injections is recorded.
The target is the same in assay [2]. Put plainly: ITC; dilution of CTD (ca. 250 uM) into buffer with 200 uM NYAD-203; 25 mM sodium phosphate pH 7.3, 30 C; apparent; dimer to monomers.
Assay [3] has the same target. Put plainly: ITC; dilution of CTD (ca. 250 uM) into buffer with 350 uM NYAD-203; 25 mM sodium phosphate pH 7.3, 30 C; apparent; dimer to monomers.
Assay [4] shares this target. Put plainly: ITC; dilution of CTD (ca. 250 uM in the syringe, 10 ul injections) into buffer without peptide; 25 mM sodium phosphate pH 7.3, 30 C; dimer to monomers.
The target of assay [5] is HIV-1 capsid CTD CTD (Human immunodeficiency virus 1) (UniProt O93182). The conditions noted are these: cited from earlier work.
Assay [6] concerns the target HIV-1 capsid CA (Human immunodeficiency virus 1) (UniProt O93182). The note with it: cited from earlier work.
For assay [7], the target named is C-terminal domain (CTD) of HIV-1 capsid (CA), wild type (HIV-1 (strain NL4-3)). Put plainly: NMR titration.
The target is the same in assay [8]. Description: ITC; Ki worked out from the rise of the apparent dimer dissociation constant of CTD with the NYAD-203 concentration, extrapolated to low (zero) peptide concentration; pH 7.3, 30 C.
Assay [9] shares this target. Described as above. This is another data set of the same source.

Like-named read-outs stand apart in the source and are kept apart here.

Chain of HIV-1 capsid CTD CTD (Human immunodeficiency virus 1) (O93182 278-363): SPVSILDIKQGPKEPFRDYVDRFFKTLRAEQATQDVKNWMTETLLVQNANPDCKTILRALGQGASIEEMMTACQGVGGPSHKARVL
Chain of CAC1 peptide (O93182 307-326): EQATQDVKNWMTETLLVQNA
Chain of HIV-1 capsid CA (O93182 133-363): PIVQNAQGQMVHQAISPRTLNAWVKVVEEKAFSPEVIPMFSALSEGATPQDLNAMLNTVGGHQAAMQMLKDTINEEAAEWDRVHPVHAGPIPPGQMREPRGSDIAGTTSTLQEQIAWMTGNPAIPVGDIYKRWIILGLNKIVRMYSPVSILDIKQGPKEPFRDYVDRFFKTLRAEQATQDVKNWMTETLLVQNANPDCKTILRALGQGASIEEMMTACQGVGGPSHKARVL

A word on the Kd: it is the free concentration of one partner at which half of the binding sites on the other are occupied at equilibrium, for simple one-to-one binding. For “C-terminal domain (CTD) of HIV-1 capsid (CA), wild type (domain or fragment)”, in assay [1], the apparent K diss with 50 uM NYAD-203 amounted to 31.2 µM and the apparent dH of dimer dissociation with 50 uM NYAD-203 worked out at 9.1 kcal/mol. In assay [2], the apparent K diss with 200 uM NYAD-203 turned out to be 33.2 µM and the apparent dH of dimer dissociation with 200 uM NYAD-203 is 10.8 kcal/mol. Also, in [3], the apparent K diss with 350 uM NYAD-203 came out at 40.5 µM and the apparent dH of dimer dissociation with 350 uM NYAD-203 was 10.9 kcal/mol. In assay [4], this substance returned a Kd of 15.3 µM and a dH of dimer dissociation of 10.7 kcal/mol.

Turning to CAC1 peptide (from UniProt O93182), the Kd in [5] is 50 µM.

As to HIV-1 capsid CA (from UniProt O93182), in [6], the Kd was 18 µM.

In [7], “NYAD-203, hydrocarbon-stapled dimer interface peptide, soluble analog of NYAD-201” came in with a Kd of under 10 µM. Also, the Ki is 40 µM in assay [8] and 45 µM in assay [9].
